The nature of this data set: total protein half-life in vivo (active degradation + dilution); higher = more stable protein.
Where [1] appears, read: E. coli NCM3722 delta-clpP, growth: N-lim chemostat, doubling time 6 h.
[2] abbreviates: E. coli NCM3722 delta-hslV, growth: N-lim chemostat, doubling time 6 h.
The mark [3] stands for this setting: E. coli NCM3722 delta-lon, growth: N-lim chemostat, doubling time 6 h.
Setting [4] is: E. coli NCM3722 delta-smpB, growth: N-lim chemostat, doubling time 6 h.
Setting [5] is: wild type E. coli NCM3722, growth: C-lim chemostat, doubling time 3 h.
Where [6] appears, read: wild type E. coli NCM3722, growth: C-lim chemostat, doubling time 6 h.
The mark [7] stands for this setting: wild type E. coli NCM3722, growth: C-lim chemostat, doubling time 12 h.
[8] abbreviates: wild type E. coli NCM3722, growth: N-lim chemostat, doubling time 6 h.
Where [9] appears, read: wild type E. coli NCM3722, growth: N-lim chemostat, doubling time 12 h.
Where [10] appears, read: wild type E. coli NCM3722, growth: P-lim chemostat, doubling time 6 h.
Setting [11] is: wild type E. coli NCM3722, growth: P-lim chemostat, doubling time 12 h.
[12] abbreviates: E. coli NCM3722 delta-clpP delta-lon delta-hslV, growth: N-lim chemostat, doubling time 6 h.

The results in this text go back to the supplement of paper PMC11246515.

± gives the standard deviation of the averaged measurements.

Regarding “MSDISKASLPKAIFLMGPTASGKTALAIELRKILPVELISVDSALIYKGMDIGTAKPNAEELLAAPHRLLDIRDPSQAYSAADFRRDALAEMADITAAGRIPLLVGGTMLYFKALLEGLSPLPSADPEVRARIEQQAAEQGWESLHRQLQEVDPVAAARIHPNDPQRLSRALEVFFISGKTLTELTQTSGDALPYQVHQFAIAPASRELLHQRIEQRFHQMLASGFEAEVRALFARGDLHTDLPSIRCVGYRQMWSYLEGEISYDEMVYRGVCATRQLAKRQITWLRGWEGVHWLDSEKPEQARDEVLQVVGAIAG”, the “total protein half-life in vivo” value by setting is: under setting [1], 4.338 ± 0.019 h; under setting [2], 5.26 ± 1.1 h; under setting [3], 5.42 ± 0.37 h; under setting [4], 4.279 ± 0.03 h; under setting [5], 3.18 ± 0.12 h; under setting [6], 5.47 ± 0.15 h. Further, the “total protein half-life in vivo” value came to 8.97 ± 0.41 h under setting [7]; 4.32 ± 0.4 h under setting [8]; 6.84 ± 1.1 h under setting [9]; 5.67 ± 0.43 h under setting [10]; 11.71 ± 0.1 h under setting [11].

Take “MSAGRLNKKSLGIVMLLSVGLLLAGCSGSKSSDTGTYSGSVYTVKRGDTLYRISRTTGTSVKELARLNGISPPYTIEVGQKLKLGGAKSSSITRKSTAKSTTKTASVTPSSAVPKSSWPPVGQRCWLWPTTGKVIMPYSTADGGNKGIDISAPRGTPIYAAGAGKVVYVGNQLRGYGNLIMIKHSEDYITAYAHNDTMLVNNGQSVKAGQKIATMGSTDAASVRLHFQIRYRATAIDPLRYLPPQGSKPKC”: the “total protein half-life in vivo” value by setting is: under setting [1], 6.06 ± 0.3 h; under setting [2], 6.34 ± 0.85 h; under setting [3], 6.04 ± 0.44 h; under setting [4], 5.693 ± 0.011 h; under setting [5], 3.22 ± 0.21 h; under setting [6], 5.4794 ± 0.0017 h. The “total protein half-life in vivo” value was 9.64 ± 0.25 h under setting [7]; 5.64 ± 0.52 h under setting [8]; 10.8 ± 0.38 h under setting [9]; 6.32 ± 0.37 h under setting [10]; 13.3 ± 0.95 h under setting [11].

For the sequence “MNIPQLTALCLRYHGVLLDASEEVVHVAVVDAPSHELLDALHFATTKRIEITCWTRQQMEGHASRTQQTLPVAVQEKHQPKAELLTRTLQSALEQRASDIHIEPADNAYRIRLRIDGVLHPLPDVSPDAGVALTARLKVLGNLDIAEHRLPQDGQFTVELAGNAVSFRIATLPCRGGEKVVLRLLQQVGQALDVNTLGMQPLQLADFAHALQQPQGLVLVTGPTGSGKTVTLYSALQKLNTADINICSVEDPVEIPIAGLNQTQIHPRAGLTFQGVLRALLRQDPDVIMIGEIRDGETAEIAIKAAQTGHLVLSTLHTNSTCETLVRLQQMGVARWMLSSALTLVIAQRLVRKLCPHCRRQQGEPIHIPDNVWPSPLPHWQAPGCVHCYHGFYGRTALFEVLPITPVIRQLISANTDVESLETHARQAGMRTLFENGCLAVEQGLTTFEELIRVLGMPHGE”, the “total protein half-life in vivo” value under setting [12] came out at 3.89 h.

For “MGAELVKWVKSHKIDAHIITFVAKMPYIDSIKLLEAGAKGCVWKTSHPAKLNRAIDSISNGYTYFDSVHMDCEKISSRYSSDNQLTNRESEILQLIADGKTNKEIANFLQLSRKTVETHRLNIMKKLDVHSGIELIKTALRMGVCTI”, the “total protein half-life in vivo” value is, setting by setting: under setting [12], 5.42 h; under setting [3], 5.01 h; under setting [4], 5.08 ± 0.25 h; under setting [5], 2.7 h; under setting [6], 4.55 ± 1.5 h; under setting [7], 8.41 ± 2.9 h. In addition, the “total protein half-life in vivo” value under setting [8] is 5.22 ± 0.2 h.

Take “MKMANHPRPGDIIQESLDELNVSLREFARAMEIAPSTASRLLTGKAALTPEMAIKLSVVIGSSPQMWLNLQNAWSLAEAEKTVDVSRLRRLVTQ”: the “total protein half-life in vivo” value amounted to 3.73 ± 0.35 h under setting [12]; 1.217 ± 0.0059 h under setting [4]; 1.58 h under setting [5]; 2.32 h under setting [6]; 2.59 h under setting [7]; 3.05 ± 1.1 h under setting [11].

Turning to “MEWIADPSIWAGLITLIVIELVLGIDNLVFIAILAEKLPPKQRDRARVTGLLLAMLMRLLLLASISWLVTLTQPLFSFRSFTFSARDLIMLFGGFFLLFKATMELNERLEGKDSNNPTQRKGAKFWGVVTQIVVLDAIFSLDSVITAVGMVDHLLVMMAAVVIAISLMLMASKPLTQFVNSHPTIVILCLSFLLMIGFSLVAEGFGFVIPKGYLYAAIGFSVMIEALNQLAIFNRRRFLSANQTLRQRTTEAVMRLLSGQKEDAELDAETASMLVDHGNQQIFNPQERRMIERVLNLNQRTVSSIMTSRHDIEHIDLNAPEEEIRQLLERNQHTRLVVTDGDDAEDLLGVVHVIDLLQQSLRGEPLNLRVLIRQPLVFPETLPLLPALEQFRNARTHFAFVVDEFGSVEGIVTLSDVTETIAGNLPNEVEEIDARHDIQKNADGSWTANGHMPLEDLVQYVPLPLDEKREYHTIAGLLMEYLQRIPKPGEEVQVGDYLLKTLQVESHRVQKVQIIPLRKDGEMEYEV”, the “total protein half-life in vivo” value was 6.68 ± 1.2 h under setting [12]; 6.24 ± 0.2 h under setting [1]; 6.92 ± 0.87 h under setting [2]; 6.34 ± 0.46 h under setting [3]; 6.27 ± 0.67 h under setting [4]; 14.9 ± 0.52 h under setting [7]. The “total protein half-life in vivo” value under setting [8] was 6.24 ± 0.23 h, the “total protein half-life in vivo” value under setting [9] was determined as 12.28 ± 0.022 h, the “total protein half-life in vivo” value under setting [10] stood at 6.598 ± 0.06 h and the “total protein half-life in vivo” value under setting [11] turned out to be 11.1 ± 2 h.

On to “MKKYLALALIAPLLISCSTTKKGDTYNEAWVKDTNGFDILMGQFAHNIENIWGFKEVVIAGPKDYVKYTDQYQTRSHINFDDGTITIETIAGTEPAAHLRRAIIKTLLMGDDPSSVDLYSDVDDITISKEPFLYGQVVDNTGQPIRWEGRASNFADYLLKNRLKSRSNGLRIIYSVTINMVPNHLDKRAHKYLGMVRQASRKYGVDESLILAIMQTESSFNPYAVSRSDALGLMQVVQHTAGKDVFRSQGKSGTPSRSFLFDPASNIDTGTAYLAMLNNVYLGGIDNPTSRRYAVITAYNGGAGSVLRVFSNDKIQAANIINTMTPGDVYQTLTTRHPSAESRRYLYKVNTAQKSYRRR [P0C066]”, for which the “total protein half-life in vivo” value reads like this: under setting [12], 6.29 ± 0.53 h; under setting [2], 6.24 ± 0.8 h; under setting [4], 4.92 ± 0.2 h; under setting [5], 3.27 ± 0.4 h; under setting [6], 5.3 ± 0.52 h; under setting [7], 9.66 ± 1.5 h. The “total protein half-life in vivo” value was 6.34 ± 0.94 h under setting [8], 12.6 ± 2.2 h under setting [9] and 7.12 h under setting [10].

On to “MANRMILNETAWFGRGAVGALTDEVKRRGYQKALIVTDKTLVQCGVVAKVTDKMDAAGLAWAIYDGVVPNPTITVVKEGLGVFQNSGADYLIAIGGGSPQDTCKAIGIISNNPEFADVRSLEGLSPTNKPSVPILAIPTTAGTAAEVTINYVITDEEKRRKFVCVDPHDIPQVAFIDADMMDGMPPALKAATGVDALTHAIEGYITRGAWALTDALHIKAIEIIAGALRGSVAGDKDAGEEMALGQYVAGMGFSNVGLGLVHGMAHPLGAFYNTPHGVANAILLPHVMRYNADFTGEKYRDIARVMGVKVEGMSLEEARNAAVEAVFALNRDVGIPPHLRDVGVRKEDIPALAQAALDDVCTGGNPREATLEDIVELYHTAW [P0A9S1]”, for which the “total protein half-life in vivo” value under setting [12] came out at 4.47 ± 0.099 h; the “total protein half-life in vivo” value under setting [1] was 3.35 ± 0.51 h; the “total protein half-life in vivo” value under setting [2] was 3.392 ± 0.0085 h; the “total protein half-life in vivo” value under setting [3] was 4.76 ± 0.29 h; the “total protein half-life in vivo” value under setting [4] came out at 2.66 ± 0.051 h; the “total protein half-life in vivo” value under setting [5] is 3.02 ± 0.11 h. Besides, the “total protein half-life in vivo” value reads like this: under setting [6], 5.64 ± 0.23 h; under setting [7], 10.6 ± 0.27 h; under setting [8], 4.48 ± 1 h; under setting [9], 4.94 ± 0.27 h; under setting [10], 5.483 ± 0.014 h; under setting [11], 10.2 ± 0.13 h.
